For assay [1], the target named is T1, human FcγRI (hFcγRI), coated on ELISA wells (human, UniProt P12314 16-288).
T1 construct: also called CD64
Description: ELISA, hFcγRI-coated wells, NSO supernatant, Rb anti-PspA or Rb anti-HSA detection.

Assay [2] has as its target T2, human FcγRI on hFcγRI-expressing U937 cells (human, UniProt P12314 16-374).
T2 construct: whole, on cells; also called hFcγRI on U937 cells
Description: flow cytometry on U937 cells, NSO supernatant, in the presence of human IgG, Rb anti-PspA or Rb anti-HSA detection. A general note: In flow cytometry, cells or beads pass a laser one at a time.

T2 sequence (P12314 16-374): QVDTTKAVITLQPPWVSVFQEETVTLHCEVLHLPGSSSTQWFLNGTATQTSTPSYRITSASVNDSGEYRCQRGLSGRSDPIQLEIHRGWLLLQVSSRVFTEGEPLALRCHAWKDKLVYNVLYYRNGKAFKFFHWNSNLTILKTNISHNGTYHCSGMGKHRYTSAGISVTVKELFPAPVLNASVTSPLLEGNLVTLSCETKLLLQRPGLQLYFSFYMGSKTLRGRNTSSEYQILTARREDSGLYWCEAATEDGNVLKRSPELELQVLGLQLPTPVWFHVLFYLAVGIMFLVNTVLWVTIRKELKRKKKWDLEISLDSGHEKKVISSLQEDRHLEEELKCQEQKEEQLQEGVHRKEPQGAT
T1 sequence (P12314 16-288 limits assumed): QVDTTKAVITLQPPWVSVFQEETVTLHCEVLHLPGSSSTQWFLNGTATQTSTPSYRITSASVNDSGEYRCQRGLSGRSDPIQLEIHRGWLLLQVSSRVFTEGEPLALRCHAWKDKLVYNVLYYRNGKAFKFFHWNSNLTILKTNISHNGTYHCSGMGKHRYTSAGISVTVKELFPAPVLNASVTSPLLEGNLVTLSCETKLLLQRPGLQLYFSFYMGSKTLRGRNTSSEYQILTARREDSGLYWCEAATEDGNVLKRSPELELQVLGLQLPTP

B1: trivalent anti-hFcγRI-PspA fusion protein (other)
chain: DIQLTQSPSSLSASVGDRVTITCKSSQSVLYSSNQKNYLAWYQQKPGKAPKLLIYWASTRESGVPSRFSGSGSGTDFTFTISSLQPEDIATYYCHQYLSSWTFGQGTKVEIKSSGGGGSGGGGSGGGGSEVQLVESGGGVVQPGRSLRLSCSSSGFIFSDNYMYWVRQAPGKGLEWVATISDGGSYTYYPDSVKGRFTISRDNSKNTLFLQMDSLRPEDTGVYFCARGYYRYEGAMDYWGQGTPVTVSSGSTGGGGSTSAGGGGSSDIQLTQSPSSLSASVGDRVTITCKSSQSVLYSSNQKNYLAWYQQKPGKAPKLLIYWASTRESGVPSRFSGSGSGTDFTFTISSLQPEDIATYYCHQYLSSWTFGQGTKVEIKSSGGGGSGGGGSGGGGSEVQLVESGGGVVQPGRSLRLSCSSSGFIFSDNYMYWVRQAPGKGLEWVATISDGGSYTYYPDSVKGRFTISRDNSKNTLFLQMDSLRPEDTGVYFCARGYYRYEGAMDYWGQGTPVTVSSGSTGGGGSTASGGGGSSDIQLTQSPSSLSASVGDRVTITCKSSQSVLYSSNQKNYLAWYQQKPGKAPKLLIYWASTRESGVPSRFSGSGSGTDFTFTISSLQPEDIATYYCHQYLSSWTFGQGTKVEIKSSGGGGSGGGGSGGGGSEVQLVESGGGVVQPGRSLRLSCSSSGFIFSDNYMYWVRQAPGKGLEWVATISDGGSYTYYPDSVKGRFTISRDNSKNTLFLQMDSLRPEDTGVYFCARGYYRYEGAMDYWGQGTPVTVSSGSTGGGGSTEFMEESPVASQSKAEKDYDAAKKDAKNAKKAVEDAQKALDDAKAAQKKYDEDQKKTEEKAALEKAASEEMDKAVAAVQQAYLAYQQATDKAAKDAADKMIDEAKKREEEAKTKFNTVRAMVVPEPEQLAETKKKSEEAKQKAPELTKKLEEAKAKLEEAEKKATEAKQKVDAEEVAPQAKIAELENQVHRLEQELKEIDESESEDYAKEGFRAPLQSKLDAKKAKLSKLEELSDKIDELDAEIAKLEDQLKAAEENNNVEDYFKEGLEKTIAAKKAELEKTEADLKKAVNEPEKPAPAPETPAPELEHHHHHH
notes: Single-chain fusion: three humanized 22 (H22) anti-human FcγRI VL-VH scFv units, then PspA (S. pneumoniae strain Rx1) and a His tag; Tested as unpurified supernatant of transfected NSO cells; also called Trivalent Anti-FcγRI-PspA; Construct B
As for B1, the binding result in assay [1] and in assay [2] was “binds” throughout.

Source of the values: US20170035878A1 (ALBANY MEDICAL COLLEGE, published 2017).
